For 139 substances, amyloid nucleation score results are on record in the supplement of paper PMC12042874.

± gives the uncertainty stated by the source.

A short description of the data set: amyloid nucleation score (Sup35N fusion, yeast selection) (log enrichment); library NNK2; higher = more nucleation; inactive = no reads after selection. The gist of the method:
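Peptides of 20 random codons fused to Sup35N were expressed in psi-negative yeast, induced 24 hours with 100 μM copper sulfate, then grown 7 days at 30°C on medium lacking adenine and uracil. Input and output plasmid inserts were Illumina-sequenced. Nucleation score is the DiMSum log enrichment of output over input reads, centred on the mode score of non-aggregating sequences, excluding sequences with under 100 input reads. Random libraries had three technical output replicates.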
Consider ALILVAMSVFLSAGLRVMIK, for which the amyloid nucleation score entry is “inactive”.

For SYYYEGGPCWIEDLHGNVYV, the amyloid nucleation score came to 0.183 ± 0.64.

Take FWHIEMCENSTYHVSLSTGC: the amyloid nucleation score amounted to 4.394 ± 0.04.

PVAQTLAVTFNY registered an amyloid nucleation score of 1.62 ± 0.23.

For SARIGISRFCPHAVSPVITK, the amyloid nucleation score entry was “inactive”.

For the substance NYRYLLFTSAVDRLQA, the amyloid nucleation score is -0.117 ± 0.21.

YAVVFHVPLLV showed an amyloid nucleation score of 5.11 ± 0.079.

Turning to EKNTMDF, the amyloid nucleation score is 1.64 ± 0.19.

Regarding IYVRLLDSDTSYWVQFVFLQ, the amyloid nucleation score result is “inactive”.

For SGFNNISMKQLWWT, the amyloid nucleation score result was “inactive”.

RMEVEFFVPW displayed an amyloid nucleation score of 2.9 ± 0.11.

LASMMPSKIPN: the amyloid nucleation score entry is “inactive”.

Substance LRFCSSSVISGLQFSSRVVE yielded an amyloid nucleation score of -0.029 ± 1.1.

VLCTRRLPLYHSSNDQ returned an amyloid nucleation score of 0.128 ± 0.32.

YYVFYMVVVCNVITIRQNHM had an amyloid nucleation score of 1.49 ± 0.28.

For the substance LNDWNFLVMVHISIVIRILF, the amyloid nucleation score entry is “inactive”.

Substance FVYNQWSYRLRYLTVAIRD gave an amyloid nucleation score of -0.111 ± 0.56.

Substance NTLKVQIV had an amyloid nucleation score of 2.94 ± 0.075.

Substance RESARRKAYLLSKNGSNWLH returned an amyloid nucleation score of -0.249 ± 0.5.

VGSNKGAIIGLMVGGMVVIA yielded an amyloid nucleation score of 2.33 ± 0.21.

In turn, GCTSTRRLVYC yielded an amyloid nucleation score of -0.622 ± 0.29.

Substance YSSAGGHRLMGMGRIRYKTG displayed an amyloid nucleation score of 0.026 ± 0.56.

Turning to MSSRTHLARRHPVMDVCCSR, the amyloid nucleation score came out at 6.639 ± 0.036.

LAYLSLICFCVDSPTQVGLM: the amyloid nucleation score is 10.11 ± 0.038.

With QKYRVL, the amyloid nucleation score was -0.611 ± 0.32.

Turning to SRIEHMACLRRP, the amyloid nucleation score was 0.496 ± 0.66.

FSAVHAHQQNLLVVFYTCCA returned an amyloid nucleation score of 3.97 ± 0.08.

CMMLAPLCLSLL: the amyloid nucleation score was -0.018 ± 1.1.

In the case of RSSTLNRRKNKGGSTNVDCL, the amyloid nucleation score turned out to be 0.355 ± 0.56.

Turning to WSLSYYISVDEDYGSRGVTM, the amyloid nucleation score was -1.6 ± 1.

YRLGGWEVNWRLDFYHRRGM displayed an amyloid nucleation score of 1.21 ± 0.32.

In turn, DRYISLCGW gave an amyloid nucleation score of -0.086 ± 0.56.

Turning to VLTLPKRNHVHL, the amyloid nucleation score stood at 0.874 ± 0.35.

On to VFFNYSNCLGLA, for which the amyloid nucleation score result is “inactive”.

On to YSASQTWCKQPIDCFIRGQN, for which the amyloid nucleation score is -0.605 ± 0.41.

The substance QNKSIDSHAVGGIRVDDYRR yielded an amyloid nucleation score of -0.088 ± 0.31.

Turning to TFRRTVNGNMRGQMPTNWAF, the amyloid nucleation score is 0.537 ± 0.22.

Consider MDKCETEMYIMSAHVFRRLW, for which the amyloid nucleation score worked out at 6.229 ± 0.048.

CFGIILVQGYMHA: the amyloid nucleation score turned out to be 3.6 ± 0.052.

As to CHHQRYGSGFRLRNSLTVGS, the amyloid nucleation score is 0.015 ± 0.41.

For the substance GTGIHLLLLVGSGDSSREMM, the amyloid nucleation score was -1.08 ± 0.36.

Consider GKEIRNNITMCGYLMQNICD, for which the amyloid nucleation score turned out to be 2.85 ± 0.17.

For YKWIIESRMGALPKQLCRRA, the amyloid nucleation score is -0.465 ± 0.42.

STFFKLD: the amyloid nucleation score is -1.88 ± 1.1.

With SDGEISGEGY, the amyloid nucleation score is -0.368 ± 1.1.

Take FSSSYCNVYYWFYMFFHWG: the amyloid nucleation score stood at 1.25 ± 0.14.

With GTGMTYAIWLSGIGRMRFYY, the amyloid nucleation score is -0.816 ± 0.33.

LAHHMF had an amyloid nucleation score of 0.429 ± 0.8.

As for TLELLIMD, the amyloid nucleation score amounted to 0.385 ± 0.33.

The substance GKDGKLTSMAHSYHDYVMRR registered an amyloid nucleation score of 0.129 ± 0.26.

KCLVSMVLMYAVTMIWDAPD: the amyloid nucleation score amounted to 1.35 ± 0.3.

As for ENGAKVLVIVYKGYPLVPWV, the amyloid nucleation score is -0.089 ± 0.46.

On to IGSRSMNYWLVVFD, for which the amyloid nucleation score was found to be 1.48 ± 0.11.

FHKKAMIRSFCPKEIDLGSM: the amyloid nucleation score result was “inactive”.

Consider SHCCGFLRGGWNRAQFGYRT, for which the amyloid nucleation score came to 3.38 ± 0.049.

SANHMKTDA: the amyloid nucleation score stood at 0.436 ± 0.8.

Consider NSIRSKDSDLRRYNPLPSTA, for which the amyloid nucleation score stood at 4.46 ± 0.083.

DRPVCMYNMF had an amyloid nucleation score of 1.63 ± 0.28.

With FMWVNS, the amyloid nucleation score result was “inactive”.

HLWVWFRYSSRSFSHMLGDC: the amyloid nucleation score was found to be 2.92 ± 0.15.

The substance HFWCLRCDTIHDSFNYSVVQ yielded an amyloid nucleation score of 7.373 ± 0.055.

GAFSYEMTRLKALGFWPL displayed an amyloid nucleation score of 5.87 ± 0.045.

Regarding CVECYFRCGLGITEVDTN, the amyloid nucleation score result is “inactive”.

With LDSWRPN, the amyloid nucleation score is -0.393 ± 0.39.

Substance GMNRL registered an amyloid nucleation score of -0.869 ± 0.55.

VSWCFFDHYHSTILKHGTVS: the amyloid nucleation score entry is “inactive”.

As to NWGNDSMRRPCCG, the amyloid nucleation score turned out to be 2 ± 0.088.

QIRPLRKRELYSW came in with an amyloid nucleation score of 2.64 ± 0.066.

For the substance CGLLGVPFTKLTMLISRRMT, the amyloid nucleation score stood at 0.286 ± 0.61.

For the substance FTIIGAAIKRVVVLTVSPYY, the amyloid nucleation score result is “inactive”.

Consider SFDGGRDGRLMYIGRMLEEL, for which the amyloid nucleation score is -0.067 ± 0.62.

As for TSPRRACWSIQSDDWFGFEW, the amyloid nucleation score was 1.33 ± 0.38.

Substance VRLHGLLHANMGKTFMLLLS gave an amyloid nucleation score of -0.486 ± 0.56.

Turning to FSLPFC, the amyloid nucleation score is 0.246 ± 0.49.

QDVGNKLKIWANITCARLWY registered an amyloid nucleation score of -0.067 ± 0.65.

Turning to CTEGQLN, the amyloid nucleation score came to 0.002 ± 0.55.

The substance YLSYSTLLPKSETEWMYCVL gave an amyloid nucleation score of -0.631 ± 1.

Turning to TSNCS, the amyloid nucleation score worked out at 0.579 ± 0.3.

CFLTTYNRNYNLMRVFSIFR showed an amyloid nucleation score of 1.43 ± 0.21.

With TCFMRCRTCNLRVIHSDVF, the amyloid nucleation score turned out to be 5.546 ± 0.048.

In turn, EILRSGMSCIWVLYDFIGI gave an amyloid nucleation score of -0.437 ± 1.

The substance TGLWDVCQVLIRFRNVFWRN yielded an amyloid nucleation score of 3.06 ± 0.079.

Turning to VTVRSFTNIRSTFKLDSPLL, the amyloid nucleation score turned out to be 0.122 ± 0.29.

AWESIAFPCKVIYCYLRWTL: the amyloid nucleation score entry was “inactive”.

Consider NRDFMCESVRNCTLALMIGS, for which the amyloid nucleation score result was “inactive”.

NFHGDAYLESVRWIHIRNKR yielded an amyloid nucleation score of -0.735 ± 0.48.

As for LEWLFA, the amyloid nucleation score came to 0.155 ± 1.1.

Take TFGLWPPQGMAIRGMRVNMN: the amyloid nucleation score result is “inactive”.

Turning to AKGMGPKNDTTYYFPVSVFE, the amyloid nucleation score was -0.213 ± 0.48.

As for YCGFVFPAWGDLLTNGSPAA, the amyloid nucleation score was 0.092 ± 0.29.

The substance SPRLAGVWVH showed an amyloid nucleation score of -0.669 ± 0.63.

As to PSRPCGLRELAYADSAKQLW, the amyloid nucleation score was determined as 1.15 ± 0.34.

Regarding YWNQNCELTVFSN, the amyloid nucleation score entry was “inactive”.

Substance IRSRLFFALLCVYS registered an amyloid nucleation score of -0.861 ± 0.41.

Turning to NNCNSSSSFIIPVAFTSVIN, the amyloid nucleation score is -1.67 ± 0.61.

Substance RMLYVFSFTHNKVVIFARTE gave an amyloid nucleation score of -1.11 ± 0.76.

Take YEMFHAILCY: the amyloid nucleation score is -0.101 ± 0.8.

RLLFCGWLTN: the amyloid nucleation score was -1 ± 1.

The substance YDLSASLVFGMFVNDLRRSR had an amyloid nucleation score of 5.68 ± 0.096.

On to MHLCADPAGFWDWN, for which the amyloid nucleation score is -0.446 ± 1.

Substance RIGCRRPRFDNEQQWARS displayed an amyloid nucleation score of 5.62 ± 0.093.

On to SYLDILCVRIVSHHCSVSSK, for which the amyloid nucleation score is 0.112 ± 0.46.

GDNYIS gave an amyloid nucleation score of 0.782 ± 0.41.

NTNVCSSRRNPVCMMVEVVR: the amyloid nucleation score entry was “inactive”.

Take LYMYKNAKVLVSHLYYWYNY: the amyloid nucleation score result is “inactive”.

For the substance LELKFFHHPSPCFYNITQSA, the amyloid nucleation score came out at 3.76 ± 0.092.

RKYTCSFRLFYRGVCFVT: the amyloid nucleation score is -1.16 ± 0.76.

ERSNSRVVDL: the amyloid nucleation score is -0.539 ± 0.44.

Substance SGCWIGRFLSSGVSMKVHVS came in with an amyloid nucleation score of 1.23 ± 0.4.

Consider PHLTMFKARYIDTFAPRS, for which the amyloid nucleation score is -0.672 ± 0.5.

The substance CFLGHGCILVGYLRDYRLLR registered an amyloid nucleation score of 0.759 ± 0.67.

Substance LCPYR had an amyloid nucleation score of -0.776 ± 1.1.

In turn, SSSAIHLRFNYCYHCFHSLT registered an amyloid nucleation score of 5.08 ± 0.065.

As to LTGNAWSSMIYSNYNMGVYS, the amyloid nucleation score entry was “inactive”.

Consider VGFSLLNKTLCFGDRCTNIS, for which the amyloid nucleation score result was “inactive”.

In turn, DLKRLAWMLILSIYNRSTIM returned an amyloid nucleation score of -0.221 ± 1.1.

Consider VVCFMPSFYAGPKI, for which the amyloid nucleation score turned out to be 5.281 ± 0.041.

As for NQWSLRGGYWPVVLVCFAWM, the amyloid nucleation score entry was “inactive”.

YRSSSWVNWIQWH displayed an amyloid nucleation score of 3.47 ± 0.095.

The substance NFTSFAYFELEDALWSWRRL yielded an amyloid nucleation score of 1.16 ± 0.35.

Substance YVLFLVRWRVNRV had an amyloid nucleation score of 2.19 ± 0.11.

With TCIGHFSNSQYN, the amyloid nucleation score result was “inactive”.

DRRMGLIVPRMSDRTDPFSY showed an amyloid nucleation score of 0.489 ± 0.29.

In turn, RVFNLLYVLNWNAKSLSWMS came in with an amyloid nucleation score of 4.32 ± 0.11.

In the case of SISRVVTWNRLRVKACRWAG, the amyloid nucleation score came to 0.601 ± 0.28.

In turn, YGVVYAYYPDQVQWVGCNE gave an amyloid nucleation score of -0.24 ± 0.64.

In turn, RRWYYFIEWRKYYQNRTVDQ gave an amyloid nucleation score of -0.321 ± 0.8.

As for QCSHI, the amyloid nucleation score was -0.193 ± 0.28.

Turning to SAGYKLDSCTVYWGLACDSR, the amyloid nucleation score is -0.366 ± 0.79.

As for GFDGLRVLLNEHNVIAK, the amyloid nucleation score turned out to be 0.771 ± 0.47.

Turning to NQMCIATFHHMAYT, the amyloid nucleation score came to 2.87 ± 0.086.

As for HFSYKPVEYPLFSRFKPVFN, the amyloid nucleation score was -0.025 ± 0.79.

In turn, PCCQEACDGCEGNRDLPGEA returned an amyloid nucleation score of 1.65 ± 0.32.

WNGGQWGAWPLCSNVCAMRS showed an amyloid nucleation score of 7.7 ± 0.062.

In turn, SQLVMHYKQVC returned an amyloid nucleation score of 1.82 ± 0.14.

Regarding SPGIARDLANRILVTIRWVS, the amyloid nucleation score is 1.25 ± 0.32.

For QLPFWGWNCMAKLTVTLHSR, the amyloid nucleation score worked out at 1.22 ± 0.29.

For RWQCLVEHMRSANLGVRRGP, the amyloid nucleation score was determined as 0.074 ± 0.41.

In turn, RFNCHFIWNIRPEFRMNNDK displayed an amyloid nucleation score of 5.61 ± 0.057.
